From patent US20250154198A1, “PEPTIDE INHIBITORS OF INTERLEUKIN-23 RECEPTOR” (Zealand Pharma A/S, priority 2021, published 2025)
*1 amine or outer side, *2 acyl side, *3 side chain or, on linkers, in order; H or OH if unused. Where a SMILES comes first, the peptide text is derived from it. Bridges are numbered along the chain shown (N, C = ends). [ ]: non-standard residue; d: D form. 1,3‑dibromopropan‑2‑one = linker (CAS 816-39-7) joining two Cys as 1,3-dithio-propan-2-one bridge -SCH2C(=O)CH2S-; Lys(N3) = [N-]=[N+]=NCCCC[C@H](N)C(=O)O; 2Nal = N[C@@H](Cc1ccc2ccccc2c1)C(=O)O; AEF = NCCOc1ccc(C[C@H](N)C(=O)O)cc1; αMeL = CC(C)C[C@](C)(N)C(=O)O; CH2COCH2 = O=C(C[*:1])C[*:2]; αMeK = C[C@](N)(CCCCN)C(=O)O; 3Amb = NCc1cccc(C(=O)O)c1; Pra = C#CC[C@H](N)C(=O)O; Abu = CC[C@H](N)C(=O)O

Assays:
[1] = biological target: T1, human IL-23R (Homo sapiens, UniProt Q5VWK5); assay: Binding assay (NanoBRET displacement of fluorophore-labelled reference compound) for estimating binding affinity to human IL-23R; settings: Table 2-3b
T1 construct: UniProtKB—Q5VWK5, amino acids 22-629; secretion signal of the plasmid (Promega N1371); expressed in transfected cells
T1 sequence (Q5VWK5 22-629): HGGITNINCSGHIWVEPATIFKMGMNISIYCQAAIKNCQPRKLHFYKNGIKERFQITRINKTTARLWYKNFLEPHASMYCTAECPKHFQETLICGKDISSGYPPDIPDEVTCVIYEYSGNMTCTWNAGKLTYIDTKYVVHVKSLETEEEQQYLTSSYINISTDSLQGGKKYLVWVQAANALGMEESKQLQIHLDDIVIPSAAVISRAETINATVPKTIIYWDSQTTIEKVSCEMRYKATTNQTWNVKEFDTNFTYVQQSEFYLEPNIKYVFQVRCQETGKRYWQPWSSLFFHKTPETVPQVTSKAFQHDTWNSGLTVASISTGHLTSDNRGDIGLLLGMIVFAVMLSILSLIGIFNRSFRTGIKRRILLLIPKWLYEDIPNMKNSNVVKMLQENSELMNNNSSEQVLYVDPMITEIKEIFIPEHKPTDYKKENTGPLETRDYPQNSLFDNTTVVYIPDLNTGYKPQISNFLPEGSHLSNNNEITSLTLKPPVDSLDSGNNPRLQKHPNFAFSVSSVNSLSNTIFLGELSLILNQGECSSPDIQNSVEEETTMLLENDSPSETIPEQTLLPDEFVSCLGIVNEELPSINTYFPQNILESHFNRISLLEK

[2] = biological target: IL-23 mediated phospho-STAT3 formation in DB cells (Homo sapiens, UniProt Q5VWK5); assay: Functional inhibition of IL-23 mediated STAT3 signalling (phospho-STAT3 Tyr705 MSD) in DB cells; type: cell-based; settings: Table 2-3b; DB cells; read-out: IC50 (pSTAT3)
Method in brief: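 DB cells preincubated 15 min with compound at 37° C, then stimulated 90 min with hIL-23 at EC80. Lysate phospho-STAT3 measured by MSD, normalized to IL-23-alone and buffer wells; IC50 and maximal % inhibition from 4PL fit.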

[3] = Peptide stability in simulated intestinal fluid (SIF); type: in vitro ADME; settings: pig, simulated intestinal fluid (SIF) with porcine pancreatin, Table 3-2, porcine pancreatin, pH 6.8, 37° C., 10 μM
Method in brief: (§1)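 Peptides incubated at 37°C with gentle shaking in SGF (NaCl, HCl, pH 1.2) or SIF (phosphate pH 6.8 with 10 g/L porcine pancreatin). Samples analysed by LC-HRMS; percent remaining at each timepoint calculated from absolute peak areas relative to time zero.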

[4] = Peptide stability in simulated gastric fluid (SGF); type: in vitro ADME; settings: pig, simulated gastric fluid (SGF) with porcine pepsin, Table 3-3, porcine pepsin, pH 1.2, 37° C., 10 μM
Method in brief: as §1

[5] = biological target: T2, Nluc-IL23R fusion protein (human, UniProt Q5VWK5 22-629); assay: BRET displacement of TAMRA-labelled peptide, Nluc-IL23R membranes
T2 construct: range 22-629; Stably expressed in HEK293 cells; also called hIL-23R; human IL-23R fused to a Nanoluc luciferase enzyme; not shown: Nanoluc luciferase (Promega N1371 plasmid) at the N-terminus
T2 sequence (looked up): T1 sequence (Q5VWK5 22-629)

[6] = biological target: T3, human IL-23R endogenously expressed on DB cells (CRL-2289) (human, UniProt Q5VWK5 24-629); assay: cell-based or functional assay
T3 sequence (looked up): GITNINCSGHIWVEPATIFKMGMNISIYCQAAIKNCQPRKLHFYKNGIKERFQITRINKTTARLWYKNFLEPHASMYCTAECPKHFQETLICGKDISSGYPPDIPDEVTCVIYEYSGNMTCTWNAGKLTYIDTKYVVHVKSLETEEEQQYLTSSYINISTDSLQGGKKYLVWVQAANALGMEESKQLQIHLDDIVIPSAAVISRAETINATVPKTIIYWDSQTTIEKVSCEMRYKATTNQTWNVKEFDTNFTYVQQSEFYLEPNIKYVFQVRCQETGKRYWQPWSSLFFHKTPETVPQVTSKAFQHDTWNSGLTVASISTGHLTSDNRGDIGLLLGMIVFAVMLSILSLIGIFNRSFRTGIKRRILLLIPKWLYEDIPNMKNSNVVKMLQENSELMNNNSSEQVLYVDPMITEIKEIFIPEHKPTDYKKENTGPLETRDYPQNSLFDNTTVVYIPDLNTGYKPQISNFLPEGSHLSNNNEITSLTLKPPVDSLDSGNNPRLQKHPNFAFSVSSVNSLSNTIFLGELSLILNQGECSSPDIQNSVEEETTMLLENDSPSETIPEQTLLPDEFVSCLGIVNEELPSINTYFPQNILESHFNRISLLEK

CC(=O)N[C@@H](CC(=O)O)C(=O)N[C@H]1CCCCNC(=O)CC[C@@H](C(=O)N[C@@H](CCCNC(=N)N)C(N)=O)NC(=O)[C@H](CC(C)C)NC(=O)[C@H](Cc2c[nH]c3ccccc23)NC(=O)[C@H](Cc2c[nH]c3ccccc23)NC(=O)[C@@H]2CSCC(=O)CSC[C@H](NC(=O)[C@H](CO)NC1=O)C(=O)N[C@@H](Cc1c[nH]c3ccccc13)C(=O)N[C@@H](CCC(N)=O)C(=O)N2 [Compound 7, [Ac]-DK(1c)SC(2a)WQC(2a)WWLE(1c)R-[NH2]] (HELM PEPTIDE1{[ac].D.K.S.C.W.Q.C.W.W.L.E.R.[am]}|CHEM1{[O=C(C[*:1])C[*:2]]}$PEPTIDE1,PEPTIDE1,3:R3-12:R3|PEPTIDE1,CHEM1,5:R3-1:R1|PEPTIDE1,CHEM1,8:R3-1:R2$$$V2.0)
potency depending on location of the amide bond in the [2,11] lactam bridge (in words) ([1]; Compound 7 (amide closer to position 11) versus Compound 4 (closer to position 2)): more active | Ki ([1]; read-out: Ki IL-23R): 26.8 nM | IC50 [2]: 159 nM | remaining at 1 h, 10 μM ([3]; 1 h, read-out: SIF (% remaining 1 h)): 0% | remaining at 4 h, 10 μM ([3]; 4 h, read-out: SIF (% remaining 4 h)): 0% | remaining at 1 h, 10 μM ([4]; 1 h, read-out: SGF (% remaining 1 h)): 0% | remaining at 4 h, 10 μM ([4]; 4 h, read-out: SGF (% remaining 4 h)): 0%

Ac-DKS[Lys(N3)]WQ[Pra]W[2Nal]LER-NH2 (lactam 2-11; triazole 4-7) [Compound 23]
Ki [5]: 117 nM

Ac-KSCWQC[AEF][2Nal]LER-NH2 (lactam 1-10; disulfide 3-6) [Compound 54]
Ki [5]: 178 nM

B1: Compound 34 (peptide)
peptide: GKTCWECWWXES
HELM: PEPTIDE1{[ac].G.K.T.C.W.E.C.W.W.[CC(C)C[C@](C)(N[*:1])C(=O)[*:2]].E.S.[am]}|CHEM1{[O=C(C[*:1])C[*:2]]}$PEPTIDE1,PEPTIDE1,3:R3-12:R3|PEPTIDE1,CHEM1,5:R3-1:R1|PEPTIDE1,CHEM1,8:R3-1:R2$$$V2.0
SMILES: CC(=O)NCC(=O)N[C@H]1CCCCNC(=O)CC[C@@H](C(=O)N[C@@H](CO)C(N)=O)NC(=O)[C@](C)(CC(C)C)NC(=O)[C@H](Cc2c[nH]c3ccccc23)NC(=O)[C@H](Cc2c[nH]c3ccccc23)NC(=O)[C@@H]2CSCC(=O)CSC[C@H](NC(=O)[C@H]([C@@H](C)O)NC1=O)C(=O)N[C@@H](Cc1c[nH]c3ccccc13)C(=O)N[C@@H](CCC(=O)O)C(=O)N2
Ki [5]: 65 nM

B2: Compound 30 (peptide)
peptide: KSCWQCHXLER
HELM: PEPTIDE1{[ac].K.S.C.W.Q.C.H.[O=C([C@H](Cc1ccc2ccccc2c1)N[*:1])[*:2]].L.E.R.[am]}|CHEM1{[O=C(C[*:1])C[*:2]]}$PEPTIDE1,PEPTIDE1,2:R3-11:R3|PEPTIDE1,CHEM1,4:R3-1:R1|PEPTIDE1,CHEM1,7:R3-1:R2$$$V2.0
SMILES: CC(=O)N[C@H]1CCCCNC(=O)CC[C@@H](C(=O)N[C@@H](CCCNC(=N)N)C(N)=O)NC(=O)[C@H](CC(C)C)NC(=O)[C@H](Cc2ccc3ccccc3c2)NC(=O)[C@H](Cc2c[nH]cn2)NC(=O)[C@@H]2CSCC(=O)CSC[C@H](NC(=O)[C@H](CO)NC1=O)C(=O)N[C@@H](Cc1c[nH]c3ccccc13)C(=O)N[C@@H](CCC(N)=O)C(=O)N2
IC50 (pSTAT3) [6]: 68.6 nM | Ki [5]: 5.53 nM

Ac-[Abu]QTWQC[AEF]W[αMeK]ENG-NH2 (thioether 1-6) [Compound C]
IC50 (pSTAT3) [6]: 13.8 nM | Ki [5]: 2.11 nM

B3: Compound 57 (peptide)
peptide: Ac-DETCWQCW[2Nal][αMeL]KR-NH2
modifications: lactam 2-11; linker 4-7 via CH2COCH2
SMILES: CC(=O)N[C@@H](CC(=O)O)C(=O)N[C@H]1CCC(=O)NCCCC[C@@H](C(=O)N[C@@H](CCCNC(=N)N)C(N)=O)NC(=O)[C@](C)(CC(C)C)NC(=O)[C@H](Cc2ccc3ccccc3c2)NC(=O)[C@H](Cc2c[nH]c3ccccc23)NC(=O)[C@@H]2CSCC(=O)CSC[C@H](NC(=O)[C@H]([C@@H](C)O)NC1=O)C(=O)N[C@@H](Cc1c[nH]c3ccccc13)C(=O)N[C@@H](CCC(N)=O)C(=O)N2
IC50 (pSTAT3) [6]: 167 nM | Ki [5]: 68 nM

H-DCSCWECWWLCR-NH2 (linker 2-11, 4-7 via CH2COCH2) [Compound 3]
Ki [5]: 205 nM

B4: Compound 1 (peptide)
peptide: DCSCWQCWWXCR
modifications: H-DC(1a)SC(2a)WQC(2a)WW[2-Me-Leu]C(1a)R-[NH2]; (1a)=[2,11] and (2a)=[4,7] 1,3-dithio-propan-2-one bridges
IC50 (pSTAT3) [6]: 783 nM | Ki [5]: 79.8 nM

Ac-DESCWQCWWLK-NH2 (lactam 2-11; linker 4-7 via 1,3‑dibromopropan‑2‑one) [Compound 11]
IC50 (pSTAT3) [6]: > 1 µM | Ki [5]: 706 nM

B5: Compound 33 (peptide)
peptide: Ac-CTCWECWW[αMeL]CS-NH2
modifications: linker 1-10, 3-6 via CH2COCH2
SMILES: CC(=O)N[C@H]1CSCC(=O)CSC[C@@H](C(=O)N[C@@H](CO)C(N)=O)NC(=O)[C@](C)(CC(C)C)NC(=O)[C@H](Cc2c[nH]c3ccccc23)NC(=O)[C@H](Cc2c[nH]c3ccccc23)NC(=O)[C@@H]2CSCC(=O)CSC[C@H](NC(=O)[C@H]([C@@H](C)O)NC1=O)C(=O)N[C@@H](Cc1c[nH]c3ccccc13)C(=O)N[C@@H](CCC(=O)O)C(=O)N2
Ki [5]: 189 nM

Ac-ESCWQCWWLK-NH2 (lactam 1-10; linker 3-6 via 1,3‑dibromopropan‑2‑one) [Compound 12]
IC50 (pSTAT3) [6]: > 1 µM | Ki [5]: 373 nM

B6: Compound 35 (peptide)
peptide: Ac-GCTCWECW[2Nal][αMeL]CR-NH2
modifications: linker 2-11, 4-7 via CH2COCH2
SMILES: CC(=O)NCC(=O)N[C@H]1CSCC(=O)CSC[C@@H](C(=O)N[C@@H](CCCNC(=N)N)C(N)=O)NC(=O)[C@](C)(CC(C)C)NC(=O)[C@H](Cc2ccc3ccccc3c2)NC(=O)[C@H](Cc2c[nH]c3ccccc23)NC(=O)[C@@H]2CSCC(=O)CSC[C@H](NC(=O)[C@H]([C@@H](C)O)NC1=O)C(=O)N[C@@H](Cc1c[nH]c3ccccc13)C(=O)N[C@@H](CCC(=O)O)C(=O)N2
Ki [5]: 41.2 nM

B7: Compound 40 (peptide)
peptide: [3Amb]SCWQCW[2Nal][αMeL]ER-NH2
modifications: lactam N-10; linker 3-6 via CH2COCH2
SMILES: CC(C)C[C@]1(C)NC(=O)[C@H](Cc2ccc3ccccc3c2)NC(=O)[C@H](Cc2c[nH]c3ccccc23)NC(=O)[C@@H]2CSCC(=O)CSC[C@H](NC(=O)[C@H](CO)NC(=O)c3cccc(c3)CNC(=O)CC[C@@H](C(=O)N[C@@H](CCCNC(=N)N)C(N)=O)NC1=O)C(=O)N[C@@H](Cc1c[nH]c3ccccc13)C(=O)N[C@@H](CCC(N)=O)C(=O)N2
Ki [5]: 18.1 nM
